Results published in the RNAGym collection of RNA variant scans (doi:10.1073/pnas.2313332121).

B1: TPR t1 (parent)
chain: GACCAAUCUGCCCUCAGAGCUCGAGAACAUCUUCGGAUGCAGAGGAGGCAGGCUUCGGUGGCGCGAUAGCGCCAACGUCCUCAACCUCCAAUGCAUCCCACCACAUGAUGAUGCCUGAAGAGCCUUGGUUUUUUG

Variants of: B1
Assay: polymerase ribozyme fitness, log enrichment relative to wild type (log ratio); higher = more active; in vitro selection for triplet polymerase activity
Procedure, shortened: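 Streptavidin-bead capture of gel-excised extended constructs, followed by RT-PCR, closed a single triplicate in vitro selection round. That round began by annealing PCR-built, transcribed mutant libraries of each subunit of a heterodimeric triplet polymerase ribozyme with a biotinylated primer, the partner subunit and triplets, then incubating them frozen at −7 °C. After Illumina sequencing of inputs and outputs, genotypes needed ≥10 input reads and ≥1 read per output. Fitness is the base-2 logarithm of genotype enrichment over wild-type enrichment, using inverse-variance-weighted replicate averages.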

Going from A66G C101A C104A U112A C114U to C64U C85U, the “polymerase ribozyme fitness (log ratio)” value rises from -5.6 to -1.42.

First: G69U U81C
Second: U67C C82G A119G
The “polymerase ribozyme fitness (log ratio)” value of the first is higher: 0.131 for the first, -5.87 for the second.

Compared with C70A C72G C102A C104A, G69C C86G is higher in “polymerase ribozyme fitness (log ratio)” value: -6.86 for the first, -2.97 for the second.

First: C70A U96A
Second: A66G C86G
The “polymerase ribozyme fitness (log ratio)” value of the first is lower: -2.63 for the first, -1.77 for the second.

First: G63C U112G
Second: G63C U112A
The “polymerase ribozyme fitness (log ratio)” value of the first is lower: -0.181 for the first, 0.435 for the second.

First: G69A C124U
Second: G69U C99G
The “polymerase ribozyme fitness (log ratio)” value of the first is higher: -1.25 for the first, -6.24 for the second.

First: G69U C99A
Second: G69U C72U
The “polymerase ribozyme fitness (log ratio)” value of the first is lower: -3.23 for the first, -0.304 for the second.

Compared with G69A U92A, C64A C86A U112G is lower in “polymerase ribozyme fitness (log ratio)” value: -6.38 for the first, -6.59 for the second.

Compared with A68G A100U U133A, G69A is higher in “polymerase ribozyme fitness (log ratio)” value: -3.27 for the first, -2.44 for the second.

First: G69C
Second: G69U
The “polymerase ribozyme fitness (log ratio)” value of the first is lower: -1.27 for the first, 0.48 for the second.

First: C70A C114A A119U
Second: G63U C73A A84U C86U A100G A111C
The “polymerase ribozyme fitness (log ratio)” value of the first is higher: -4.59 for the first, -6.77 for the second.

G63U A74U and G63U C85A G128A are within 0.2 log units of each other in “polymerase ribozyme fitness (log ratio)” value: -4.43 for the first, -4.29 for the second.

First: G63U C82U G127C
Second: C64U C123A
The “polymerase ribozyme fitness (log ratio)” value of the first is lower: -1.96 for the first, -0.0204 for the second.

First: G63U G128U
Second: G69C G113U
The “polymerase ribozyme fitness (log ratio)” value of the first is higher: -2.6 for the first, -4.51 for the second.

Going from G69U U78C A84G G122A G128A to G69C A121U, the “polymerase ribozyme fitness (log ratio)” value rises from -3.23 to 0.369.

Compared with G63U C123U, G69C C80U is lower in “polymerase ribozyme fitness (log ratio)” value: -0.374 for the first, -2.38 for the second.

Going from G69A G135A to A68U A121G, the “polymerase ribozyme fitness (log ratio)” value falls from -3.3 to -6.65.

Going from A68U A121U to A66C G113A, the “polymerase ribozyme fitness (log ratio)” value rises from -6.36 to -1.78.

Compared with G63U C97U C98U G113A A118G U134G, C64U C104A is higher in “polymerase ribozyme fitness (log ratio)” value: -3.87 for the first, -1.31 for the second.

First: G63C U132A
Second: C70G C85A U106A U130A
The “polymerase ribozyme fitness (log ratio)” value of the first is higher: -0.875 for the first, -4.47 for the second.

Compared with G69C G128C, G63C C86A U96G C102A is lower in “polymerase ribozyme fitness (log ratio)” value: -3.85 for the first, -5.23 for the second.

Going from C70G C72U to C70G C86U G110U G113C, the “polymerase ribozyme fitness (log ratio)” value falls from -2.61 to -6.29.

First: G69C C97A
Second: G63U G77U
The “polymerase ribozyme fitness (log ratio)” value of the first is lower: -6.49 for the first, -3.54 for the second.

First: G69U A111G
Second: C70A C101A
The “polymerase ribozyme fitness (log ratio)” value of the first is higher: 1.89 for the first, -2.43 for the second.

Compared with C70A U109G, C70A U109C is higher in “polymerase ribozyme fitness (log ratio)” value: -5.72 for the first, -4.18 for the second.

Going from G69A C88A C123G C124A G135U to A68G G71A C101U, the “polymerase ribozyme fitness (log ratio)” value falls from -3.37 to -5.85.

First: G63C C114U A118C
Second: G69U C86G C94U C124G G135A
The “polymerase ribozyme fitness (log ratio)” value of the first is lower: -3.66 for the first, 0.0412 for the second.

First: G63U C114A G122U
Second: C64U C79U C85A A105G
The “polymerase ribozyme fitness (log ratio)” value of the first is higher: -3.44 for the first, -5.05 for the second.

Compared with C64G U112G G120A, G63C C89A U116C is higher in “polymerase ribozyme fitness (log ratio)” value: -5.95 for the first, -3.78 for the second.

First: A68G C73G C82U
Second: G69C C86A C94U C114U
The “polymerase ribozyme fitness (log ratio)” value of the first is higher: -5.21 for the first, -6.26 for the second.

Compared with G63C C124A, G63C C104U is lower in “polymerase ribozyme fitness (log ratio)” value: 0.234 for the first, -0.59 for the second.

Going from G63U C89U A90G U112A C123G to G69U C104A G113C, the “polymerase ribozyme fitness (log ratio)” value falls from 0.558 to -1.8.

First: G69U U132A
Second: A66G U96C A118U
The “polymerase ribozyme fitness (log ratio)” value of the first is higher: 0.176 for the first, -1.1 for the second.

First: G69A C82U U112G
Second: G63C A111U
The “polymerase ribozyme fitness (log ratio)” value of the first is lower: -4.1 for the first, -3.26 for the second.

First: A66U C115A
Second: G63C A121G U130A
The “polymerase ribozyme fitness (log ratio)” value of the first is lower: -1.05 for the first, 0.94 for the second.

Going from G63U C99U to G63U U92G G122A, the “polymerase ribozyme fitness (log ratio)” value falls from -4.73 to -5.14.

Compared with U67A C70G C89G C123G, A66U C70U C88G is higher in “polymerase ribozyme fitness (log ratio)” value: -6.22 for the first, -2.66 for the second.

First: G69U C70G C88U C115A
Second: G63U C114A U133A
The “polymerase ribozyme fitness (log ratio)” value of the first is higher: -0.11 for the first, -3.35 for the second.

First: G63C U81G G120A
Second: G69U U92A U130A
The “polymerase ribozyme fitness (log ratio)” value of the first is lower: -3.19 for the first, -1.5 for the second.

First: G69U C94U
Second: C64U C82G C89A U109A
The “polymerase ribozyme fitness (log ratio)” value of the first is higher: 1.7 for the first, -5.15 for the second.

First: A68G C115U
Second: C64U U109A
The “polymerase ribozyme fitness (log ratio)” value of the first is higher: -3.75 for the first, -4.01 for the second.

For C70A C80A U126C, the “polymerase ribozyme fitness (log ratio)” value was -5.37.
